Biological target: isolated C-terminal domain of FusB (Pectobacterium carotovorum LMG2410)
Assay: ITC; MicroCal iTC200, 25°C, 10 mM Tris-HCl (pH 7.5)-150 mM NaCl; titrant (FusANTR-GFP, GFP or FerSp) injected in 2 μl steps into FusBCTD, FusBCTD R176K/R177K or TonBCTD in the cell

Substance	Kd [µM]
N-terminal region of FusA (residues 21 to 66) fused to green fluorescent protein (from UniProt C6DG80 21-66) (domain or fragment)	57
spinach ferredoxin (from UniProt P00221 51-147) (natural protein)	8.7

From paper PMC7593965
